From doi:10.1101/2020.07.24.212647 (bioRxiv, 2020)

Target: the molecule itself
Test: crystal structure

B1: M. tuberculosis E2b catalytic domain (MtE2b_CD) (domain or fragment)
chain: PDVRPVHGVHARMAEKMTLSHKEIPTAKASVEVICAELLRLRDRFVSAAPEITPFALTLRLLVIALKHNVILNSTWVDSGEGPQVHVHRGVHLGFGAATERGLLVPVVTDAQDKNTRELASRVAELITGAREGTLTPAELRGSTFTVSNFGALGVDDGVPVINHPEAAILGLGAIKPRPVVVGGEVVARPTMTLTCVFDHRVVDGAQVAQFMCELRDLIESPETALLDL
  stoichiometry N: 24
